Measurements published in patent US20040171158A1 (VECTORLOGICS, published 2004).

Assays:
[1] = target: T1, Ad5 fiber-zipper protein with zipper peptide RR12EE345L at the carboxy terminus of the fiber (Ad5 (adenovirus serotype 5), UniProt P11818 1-581); test: co-precipitation of cell lysate with 6His-tagged sCAR on Ni-NTA matrix, detection with anti-fiber antibody
T1 construct: Transiently expressed in 293 cells, tested as cell lysate; also called Carboxy terminus of the fiber RR12EE345L; pVS-LL-RN
T1 sequence: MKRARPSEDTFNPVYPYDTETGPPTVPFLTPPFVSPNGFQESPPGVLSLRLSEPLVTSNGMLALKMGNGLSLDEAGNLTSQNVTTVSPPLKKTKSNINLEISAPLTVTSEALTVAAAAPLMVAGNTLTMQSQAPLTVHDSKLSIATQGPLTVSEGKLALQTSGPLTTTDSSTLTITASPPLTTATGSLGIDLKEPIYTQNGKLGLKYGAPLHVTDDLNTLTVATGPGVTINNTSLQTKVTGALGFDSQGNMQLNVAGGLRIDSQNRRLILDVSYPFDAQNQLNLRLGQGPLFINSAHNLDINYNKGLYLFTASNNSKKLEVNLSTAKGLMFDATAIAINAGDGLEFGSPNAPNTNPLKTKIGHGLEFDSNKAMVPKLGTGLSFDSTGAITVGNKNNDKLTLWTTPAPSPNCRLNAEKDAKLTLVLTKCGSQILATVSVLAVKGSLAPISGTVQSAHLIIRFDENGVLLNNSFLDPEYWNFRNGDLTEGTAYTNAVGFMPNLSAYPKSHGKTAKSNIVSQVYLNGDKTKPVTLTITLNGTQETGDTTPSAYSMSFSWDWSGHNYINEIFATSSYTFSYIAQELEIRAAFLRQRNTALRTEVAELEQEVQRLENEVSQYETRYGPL

[2] = target: T2, Ad5 fiber-zipper protein with zipper peptide EE12RR345L at the carboxy terminus of the fiber (Ad5 (adenovirus serotype 5), UniProt P11818 1-581); test: as above
T2 construct: Transiently expressed in 293 cells, tested as cell lysate; also called Carboxy terminus of the fiber EE12RR345L; pVS-LL-EN

B1: soluble form of the coxsackie virus and adenovirus receptor (CAR) with a carboxy terminal 6His tag (receptor)
chain: LSITTPEEMIEKAKGETAYLPCKFTLSPEDQGPLDIEWLISPADNQKVDQVIILYSGDKIYDDYYPDLKGRVHFTSNDLKSGDASINVTNLQLSDIGTYQCKVKKAPGVANKKIHLVVLVKPSGARCYVDGSEEIGSDFKIKCEPKEGSLPLQYEWQKLSDSQKMPTSWLAEMTSSVISVKNASSEYSGTYSCTVRNRVGSDQCLLRLNVVPPSNKAHHHHHH
notes: also called sCAR; native adenoviral receptor
B1: no binding [1]; no binding [2].
